From ChEMBL document CHEMBL1155806, “Inorganic polyhedral metallacarborane inhibitors of HIV protease: a new approach to overcoming antiviral resistance” (J Med Chem, 2008)

Assays:
[1] = tested on: Cc1c(O)cccc1C(=O)N[C@@H](CSc1ccccc1)[C@H](O)CN1C[C@H]2CCCC[C@H]2C[C@H]1C(=O)NC(C)(C)C; settings: Human immunodeficiency virus 1
[2] = tested on: Cc1c(O)cccc1C(=O)N[C@@H](CSc1ccccc1)[C@H](O)CN1C[C@H]2CCCC[C@H]2C[C@H]1C(=O)NC(C)(C)C; settings: Human immunodeficiency virus 1; remark: listed apart in the source
[3] = tested on: Cc1c(O)cccc1C(=O)N[C@@H](CSc1ccccc1)[C@H](O)CN1C[C@H]2CCCC[C@H]2C[C@H]1C(=O)NC(C)(C)C; settings: Human immunodeficiency virus 1; remark: listed apart in the source
[4] = tested on: Cc1c(O)cccc1C(=O)N[C@@H](CSc1ccccc1)[C@H](O)CN1C[C@H]2CCCC[C@H]2C[C@H]1C(=O)NC(C)(C)C; settings: Human immunodeficiency virus 1; remark: listed apart in the source
[5] = tested on: Cc1c(O)cccc1C(=O)N[C@@H](CSc1ccccc1)[C@H](O)CN1C[C@H]2CCCC[C@H]2C[C@H]1C(=O)NC(C)(C)C; settings: Human immunodeficiency virus 1; remark: listed apart in the source
[6] = tested on: Cc1c(O)cccc1C(=O)N[C@@H](CSc1ccccc1)[C@H](O)CN1C[C@H]2CCCC[C@H]2C[C@H]1C(=O)NC(C)(C)C; settings: Human immunodeficiency virus 1; BH10
[7] = tested on: Cc1c(O)cccc1C(=O)N[C@@H](CSc1ccccc1)[C@H](O)CN1C[C@H]2CCCC[C@H]2C[C@H]1C(=O)NC(C)(C)C; settings: Human immunodeficiency virus 1; remark: listed apart in the source
[8] = tested on: Cc1c(O)cccc1C(=O)N[C@@H](CSc1ccccc1)[C@H](O)CN1C[C@H]2CCCC[C@H]2C[C@H]1C(=O)NC(C)(C)C; settings: Human immunodeficiency virus 1; remark: listed apart in the source

## Human immunodeficiency virus type 1 protease (Human immunodeficiency virus 1), Q72874 V32I,I47A
[1]
  Km: 35 µM
  kcat: 7.5 s⁻¹

## Human immunodeficiency virus type 1 protease (Human immunodeficiency virus 1), Q72874 D30N,N88D
[2]
  Km: 18 µM
  kcat: 24 s⁻¹

## Human immunodeficiency virus type 1 protease (Human immunodeficiency virus 1), Q72874 A71V,V82T,I84V
[3]
  Km: 36 µM
  kcat: 11 s⁻¹

## Human immunodeficiency virus type 1 protease (Human immunodeficiency virus 1), Q72874 L10I,L24I,L33F,M46L,I54V,L63P,A71V,V82A,I84V
[4]
  Km: 14 µM
  kcat: 6.4 s⁻¹

## Human immunodeficiency virus type 1 protease (Human immunodeficiency virus 1), Q72874 L10F,L19I,K20R,L33F,E35D,M36I,R41K,F53L,I54V,L63P,H69K,A71V,T74P,I84V,L89M,L90M,I93L
[5]
  Km: 13 µM
  kcat: 10 s⁻¹

## Protease (Human immunodeficiency virus 1), Q9YQ12
[6]
  Km: 15 µM
  kcat: 30 s⁻¹

## Human immunodeficiency virus type 1 protease (Human immunodeficiency virus 1), Q72874 L10I,I15V,E35D,N37S,R41K,I62V,L63P,A71V,G73S,L90M
[7]
  Km: 8.3 µM
  kcat: 12 s⁻¹

## Human immunodeficiency virus type 1 protease (Human immunodeficiency virus 1), Q72874 M46I,A71V,V82T,I84V
[8]
  Km: 48 µM
  kcat: 14 s⁻¹
